Data: patent US20140072613A1, “Compositions and Methods for Treating Cutaneous Scarring” (priority 2012, published 2014)

How the values were obtained:
[1] = molecular target: Abl(H8396P)(h) (human), P00519; experiment: cell-based or functional assay
CK1δ(h) (human), P48730 = experiment: cell-based or functional assay
[2] = molecular target: CaMKIIδ(h) (human), Q13557; experiment: cell-based or functional assay
[3] = molecular target: CaMKIδ(h) (human), Q8IU85; experiment: cell-based or functional assay
PKCβI(h) (human), P05771 = experiment: cell-based or functional assay
PKG1α(h) (human), Q13976 = experiment: cell-based or functional assay
CaMKI(h) (human), Q14012 = experiment: cell-based or functional assay
DMPK(h) (human), Q09013 = molecular target: T1, DMPK(h) (human), Q09013; experiment: cell-based or functional assay
T1 chain: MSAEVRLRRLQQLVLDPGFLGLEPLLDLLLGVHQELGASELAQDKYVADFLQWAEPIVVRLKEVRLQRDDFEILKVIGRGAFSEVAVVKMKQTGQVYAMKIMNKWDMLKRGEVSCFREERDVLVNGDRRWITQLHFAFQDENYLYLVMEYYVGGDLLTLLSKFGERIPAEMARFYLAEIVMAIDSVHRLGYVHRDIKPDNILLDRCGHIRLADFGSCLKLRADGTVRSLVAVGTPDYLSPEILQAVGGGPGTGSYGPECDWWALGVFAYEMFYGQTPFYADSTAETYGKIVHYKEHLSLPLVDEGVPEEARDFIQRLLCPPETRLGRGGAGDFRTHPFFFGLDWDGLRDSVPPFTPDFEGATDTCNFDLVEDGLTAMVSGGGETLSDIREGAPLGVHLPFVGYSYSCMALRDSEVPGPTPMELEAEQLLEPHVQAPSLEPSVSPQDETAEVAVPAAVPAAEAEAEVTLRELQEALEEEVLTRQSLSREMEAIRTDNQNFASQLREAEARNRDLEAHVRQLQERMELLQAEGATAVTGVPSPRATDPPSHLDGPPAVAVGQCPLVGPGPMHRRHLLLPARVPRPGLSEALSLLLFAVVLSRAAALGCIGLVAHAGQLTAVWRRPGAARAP

DRAK1(h) (human), Q9UEE5 = molecular target: T2, DRAK1(h) (human), Q9UEE5; experiment: cell-based or functional assay
T2 chain: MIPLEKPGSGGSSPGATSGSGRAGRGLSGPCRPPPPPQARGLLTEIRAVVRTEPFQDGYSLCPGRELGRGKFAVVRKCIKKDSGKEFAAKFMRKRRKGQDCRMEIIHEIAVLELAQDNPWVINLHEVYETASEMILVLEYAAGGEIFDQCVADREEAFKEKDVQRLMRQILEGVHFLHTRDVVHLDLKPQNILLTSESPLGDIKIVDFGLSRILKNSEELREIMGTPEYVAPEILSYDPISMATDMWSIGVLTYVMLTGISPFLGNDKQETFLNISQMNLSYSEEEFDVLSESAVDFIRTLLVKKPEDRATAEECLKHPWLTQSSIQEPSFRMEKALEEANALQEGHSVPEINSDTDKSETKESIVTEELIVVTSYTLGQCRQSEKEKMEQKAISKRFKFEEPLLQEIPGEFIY

[4] = molecular target: EGFR(L861Q)(h) (human), P00533; experiment: cell-based or functional assay
EphA2(h) (human), P29317 = molecular target: T3, EphA2(h) (human), P29317; experiment: cell-based or functional assay
T3 chain: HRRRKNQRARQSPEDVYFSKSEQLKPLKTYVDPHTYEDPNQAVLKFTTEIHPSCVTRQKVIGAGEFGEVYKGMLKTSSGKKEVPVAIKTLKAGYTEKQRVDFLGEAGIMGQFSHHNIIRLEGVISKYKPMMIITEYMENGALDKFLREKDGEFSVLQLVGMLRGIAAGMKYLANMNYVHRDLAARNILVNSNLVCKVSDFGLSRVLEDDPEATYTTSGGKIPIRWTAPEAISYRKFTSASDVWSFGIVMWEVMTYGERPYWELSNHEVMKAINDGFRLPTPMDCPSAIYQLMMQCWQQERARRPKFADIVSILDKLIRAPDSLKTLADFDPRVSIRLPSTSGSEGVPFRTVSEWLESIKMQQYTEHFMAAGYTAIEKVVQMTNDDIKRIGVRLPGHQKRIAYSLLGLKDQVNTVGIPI

FGFR2(h) (human), P21802 = molecular target: T4, FGFR2(h) (human), P21802; experiment: cell-based or functional assay
T4 chain: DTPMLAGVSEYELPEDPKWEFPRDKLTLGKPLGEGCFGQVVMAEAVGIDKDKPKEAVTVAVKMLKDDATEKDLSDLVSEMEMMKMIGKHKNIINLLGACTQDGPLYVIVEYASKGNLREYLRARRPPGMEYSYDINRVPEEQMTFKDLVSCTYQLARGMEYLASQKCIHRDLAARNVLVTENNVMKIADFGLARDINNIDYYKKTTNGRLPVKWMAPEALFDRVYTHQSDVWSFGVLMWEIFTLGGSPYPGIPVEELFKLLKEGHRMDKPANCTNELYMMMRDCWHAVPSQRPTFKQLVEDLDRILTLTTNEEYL

Fes(h) (human), P07332 = experiment: cell-based or functional assay
Fgr(h) (human), P09769 = experiment: cell-based or functional assay
LOK(h) (human), O94804 = experiment: cell-based or functional assay
[5] = molecular target: MAPKAP-K2(h) (human), P49137; experiment: cell-based or functional assay
[6] = molecular target: MAPKAP-K3(h) (human), Q16644; experiment: cell-based or functional assay
MSK1(h) (human), O75582 = experiment: cell-based or functional assay
Pim-1(h) (human), P11309 = experiment: cell-based or functional assay
TrkB(h) (human), Q16620 = experiment: cell-based or functional assay
Yes(h) (human), P07947 = experiment: cell-based or functional assay
[7] = molecular target: Angiotensin 2 (off-target receptor); experiment: Cerep binding assay, competition with a radiolabelled ligand
[8] = molecular target: Bombesin (off-target receptor); experiment: as above
[9] = molecular target: Melanocortin 4 (off-target receptor) (Homo sapiens (Human)), P32245; experiment: as above
[10] = molecular target: T5, Neurokinin 2 (off-target receptor) (Homo sapiens (Human)), P21452; experiment: as above
T5 chain: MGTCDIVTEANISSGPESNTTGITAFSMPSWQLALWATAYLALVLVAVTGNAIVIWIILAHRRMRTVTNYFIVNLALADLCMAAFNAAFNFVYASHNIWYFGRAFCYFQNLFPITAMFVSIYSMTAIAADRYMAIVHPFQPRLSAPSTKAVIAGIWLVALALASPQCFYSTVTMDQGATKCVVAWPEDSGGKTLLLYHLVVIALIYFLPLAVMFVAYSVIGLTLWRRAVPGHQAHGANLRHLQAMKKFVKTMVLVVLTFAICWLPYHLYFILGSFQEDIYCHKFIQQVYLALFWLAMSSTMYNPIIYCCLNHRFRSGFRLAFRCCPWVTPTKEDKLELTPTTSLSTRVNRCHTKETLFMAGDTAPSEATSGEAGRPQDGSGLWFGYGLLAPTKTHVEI

[11] = molecular target: Neuropeptide Y (off-target receptor); experiment: as above
[12] = molecular target: Serotonin 2A (off-target receptor) (Homo sapiens (Human)), P28223; experiment: as above
[13] = molecular target: Small conductance calcium activated K+ channel; experiment: as above
[14] = molecular target: Vasoactive intestinal peptide (off-target receptor); experiment: as above

CaMKIδ(h) (human), Q8IU85, sequence (Q8IU85 whole entry, stated change not applied): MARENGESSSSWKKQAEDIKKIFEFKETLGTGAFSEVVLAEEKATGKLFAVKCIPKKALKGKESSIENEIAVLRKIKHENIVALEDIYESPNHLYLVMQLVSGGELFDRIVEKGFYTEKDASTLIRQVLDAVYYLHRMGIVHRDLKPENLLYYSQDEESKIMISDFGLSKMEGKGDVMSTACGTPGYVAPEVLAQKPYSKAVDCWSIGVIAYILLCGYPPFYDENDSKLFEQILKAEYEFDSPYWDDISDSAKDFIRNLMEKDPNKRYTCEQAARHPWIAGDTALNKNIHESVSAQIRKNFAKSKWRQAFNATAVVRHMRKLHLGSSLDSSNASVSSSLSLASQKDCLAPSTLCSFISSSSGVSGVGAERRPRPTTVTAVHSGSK
PKG1α(h) (human), Q13976, sequence (Q13976 whole entry): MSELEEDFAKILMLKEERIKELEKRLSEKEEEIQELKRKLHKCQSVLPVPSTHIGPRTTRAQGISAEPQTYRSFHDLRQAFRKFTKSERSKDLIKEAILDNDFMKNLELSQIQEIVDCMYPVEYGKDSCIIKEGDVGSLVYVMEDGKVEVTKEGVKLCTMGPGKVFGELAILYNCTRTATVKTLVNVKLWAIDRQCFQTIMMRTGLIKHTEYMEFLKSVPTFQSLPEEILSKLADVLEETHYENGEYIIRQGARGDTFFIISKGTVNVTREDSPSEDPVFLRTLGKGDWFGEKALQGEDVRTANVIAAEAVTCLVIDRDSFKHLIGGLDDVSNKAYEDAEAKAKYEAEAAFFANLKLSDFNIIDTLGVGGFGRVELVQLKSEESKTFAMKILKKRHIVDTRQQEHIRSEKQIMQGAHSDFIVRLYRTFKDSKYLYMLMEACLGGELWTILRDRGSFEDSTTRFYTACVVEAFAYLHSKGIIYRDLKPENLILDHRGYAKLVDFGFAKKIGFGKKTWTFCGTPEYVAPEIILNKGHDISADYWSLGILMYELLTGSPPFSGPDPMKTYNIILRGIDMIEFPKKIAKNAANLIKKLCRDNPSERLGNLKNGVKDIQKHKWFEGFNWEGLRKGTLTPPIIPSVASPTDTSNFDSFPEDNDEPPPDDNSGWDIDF
Abl(H8396P)(h) (human), P00519, sequence (P00519 27-1130, stated change not applied): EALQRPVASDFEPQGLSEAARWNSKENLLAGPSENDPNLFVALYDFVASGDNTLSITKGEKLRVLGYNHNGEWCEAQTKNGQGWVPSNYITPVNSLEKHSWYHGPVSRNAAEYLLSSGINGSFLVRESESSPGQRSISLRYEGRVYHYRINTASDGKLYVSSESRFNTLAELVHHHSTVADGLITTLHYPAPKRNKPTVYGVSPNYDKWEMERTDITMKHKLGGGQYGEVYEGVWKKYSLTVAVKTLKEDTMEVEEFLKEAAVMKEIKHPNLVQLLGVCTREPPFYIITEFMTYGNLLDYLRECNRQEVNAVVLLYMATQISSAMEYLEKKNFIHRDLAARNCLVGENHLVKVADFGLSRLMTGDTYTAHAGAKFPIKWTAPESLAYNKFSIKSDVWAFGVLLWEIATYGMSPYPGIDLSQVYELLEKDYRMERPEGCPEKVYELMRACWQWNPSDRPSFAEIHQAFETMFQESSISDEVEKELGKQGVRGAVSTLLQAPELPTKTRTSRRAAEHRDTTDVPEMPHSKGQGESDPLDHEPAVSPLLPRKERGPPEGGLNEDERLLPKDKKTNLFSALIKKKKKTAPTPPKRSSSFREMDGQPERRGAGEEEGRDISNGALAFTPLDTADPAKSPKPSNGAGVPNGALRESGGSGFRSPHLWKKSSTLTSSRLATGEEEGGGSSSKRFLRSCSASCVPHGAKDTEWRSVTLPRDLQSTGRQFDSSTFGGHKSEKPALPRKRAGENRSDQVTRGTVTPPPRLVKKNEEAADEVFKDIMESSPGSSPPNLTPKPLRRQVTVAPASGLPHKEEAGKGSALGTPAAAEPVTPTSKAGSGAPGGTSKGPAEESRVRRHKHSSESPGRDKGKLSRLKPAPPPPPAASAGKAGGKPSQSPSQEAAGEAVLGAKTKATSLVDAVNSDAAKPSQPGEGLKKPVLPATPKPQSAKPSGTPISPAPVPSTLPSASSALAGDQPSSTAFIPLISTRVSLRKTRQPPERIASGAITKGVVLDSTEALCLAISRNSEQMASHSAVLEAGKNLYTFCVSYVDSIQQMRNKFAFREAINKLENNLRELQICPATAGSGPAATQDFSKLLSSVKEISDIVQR
PKCβI(h) (human), P05771, sequence (P05771 whole entry): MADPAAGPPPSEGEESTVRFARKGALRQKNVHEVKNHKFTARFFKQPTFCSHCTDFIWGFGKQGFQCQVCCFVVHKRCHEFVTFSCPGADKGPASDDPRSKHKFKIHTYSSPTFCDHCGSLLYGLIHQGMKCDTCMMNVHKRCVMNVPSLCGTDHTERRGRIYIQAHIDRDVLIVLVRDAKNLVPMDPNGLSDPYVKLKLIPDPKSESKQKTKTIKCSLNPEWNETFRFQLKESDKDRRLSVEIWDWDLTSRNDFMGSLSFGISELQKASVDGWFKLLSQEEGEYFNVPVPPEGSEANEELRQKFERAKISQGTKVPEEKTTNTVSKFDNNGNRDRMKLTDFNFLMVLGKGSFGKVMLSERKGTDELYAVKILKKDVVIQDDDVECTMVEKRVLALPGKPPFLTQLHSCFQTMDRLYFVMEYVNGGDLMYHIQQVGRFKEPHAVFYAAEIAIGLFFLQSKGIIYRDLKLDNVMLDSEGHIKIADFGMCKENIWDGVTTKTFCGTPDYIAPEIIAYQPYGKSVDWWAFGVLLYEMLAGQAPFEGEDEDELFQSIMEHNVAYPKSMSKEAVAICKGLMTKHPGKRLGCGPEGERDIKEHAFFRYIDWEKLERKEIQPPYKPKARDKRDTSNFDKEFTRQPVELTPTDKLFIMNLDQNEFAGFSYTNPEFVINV
CK1δ(h) (human), P48730, sequence (P48730 1-294, stated change not applied): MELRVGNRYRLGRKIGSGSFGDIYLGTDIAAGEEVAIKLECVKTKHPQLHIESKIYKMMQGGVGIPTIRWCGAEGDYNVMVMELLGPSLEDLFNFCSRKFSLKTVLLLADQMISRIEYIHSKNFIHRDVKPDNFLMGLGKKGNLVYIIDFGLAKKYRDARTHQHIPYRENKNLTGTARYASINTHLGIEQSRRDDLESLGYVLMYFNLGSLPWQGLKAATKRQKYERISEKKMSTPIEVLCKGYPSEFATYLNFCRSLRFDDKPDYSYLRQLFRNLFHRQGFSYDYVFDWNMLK
CaMKIIδ(h) (human), Q13557, sequence (Q13557 whole entry, stated change not applied): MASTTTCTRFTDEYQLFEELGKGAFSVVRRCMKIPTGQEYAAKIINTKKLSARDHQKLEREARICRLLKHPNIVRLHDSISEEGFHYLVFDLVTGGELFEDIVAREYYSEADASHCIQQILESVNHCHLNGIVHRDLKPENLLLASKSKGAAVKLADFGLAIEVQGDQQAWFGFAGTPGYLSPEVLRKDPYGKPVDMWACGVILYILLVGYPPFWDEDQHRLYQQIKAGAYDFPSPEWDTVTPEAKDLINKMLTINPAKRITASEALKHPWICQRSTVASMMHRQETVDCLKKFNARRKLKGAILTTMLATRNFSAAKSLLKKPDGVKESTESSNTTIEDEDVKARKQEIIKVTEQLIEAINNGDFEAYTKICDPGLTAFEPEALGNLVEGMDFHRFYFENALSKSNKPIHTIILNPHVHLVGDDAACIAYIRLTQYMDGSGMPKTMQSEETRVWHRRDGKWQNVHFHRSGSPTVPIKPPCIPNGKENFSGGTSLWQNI
MSK1(h) (human), O75582, sequence (O75582 whole entry): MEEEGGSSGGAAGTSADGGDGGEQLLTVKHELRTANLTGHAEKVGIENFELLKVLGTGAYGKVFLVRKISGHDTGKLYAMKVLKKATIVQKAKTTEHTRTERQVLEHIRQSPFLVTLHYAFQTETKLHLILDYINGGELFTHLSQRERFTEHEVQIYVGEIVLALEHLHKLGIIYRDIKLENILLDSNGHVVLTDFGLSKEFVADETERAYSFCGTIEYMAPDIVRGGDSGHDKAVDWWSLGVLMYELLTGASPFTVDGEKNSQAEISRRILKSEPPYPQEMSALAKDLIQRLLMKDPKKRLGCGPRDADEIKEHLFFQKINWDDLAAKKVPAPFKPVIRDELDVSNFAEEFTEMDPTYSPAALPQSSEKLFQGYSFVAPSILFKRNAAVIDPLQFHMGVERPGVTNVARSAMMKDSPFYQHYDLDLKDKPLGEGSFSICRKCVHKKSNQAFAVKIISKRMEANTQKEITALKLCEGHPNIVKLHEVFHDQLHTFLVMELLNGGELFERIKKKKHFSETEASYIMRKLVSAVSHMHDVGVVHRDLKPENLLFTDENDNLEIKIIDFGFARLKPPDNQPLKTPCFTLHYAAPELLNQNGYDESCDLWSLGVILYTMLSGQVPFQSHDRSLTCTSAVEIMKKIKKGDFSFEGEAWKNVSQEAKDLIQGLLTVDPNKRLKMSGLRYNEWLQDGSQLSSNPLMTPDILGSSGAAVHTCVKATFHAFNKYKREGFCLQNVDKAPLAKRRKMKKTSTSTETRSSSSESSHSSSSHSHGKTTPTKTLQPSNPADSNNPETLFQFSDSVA
TrkB(h) (human), Q16620, sequence (Q16620 455-822 limits assumed): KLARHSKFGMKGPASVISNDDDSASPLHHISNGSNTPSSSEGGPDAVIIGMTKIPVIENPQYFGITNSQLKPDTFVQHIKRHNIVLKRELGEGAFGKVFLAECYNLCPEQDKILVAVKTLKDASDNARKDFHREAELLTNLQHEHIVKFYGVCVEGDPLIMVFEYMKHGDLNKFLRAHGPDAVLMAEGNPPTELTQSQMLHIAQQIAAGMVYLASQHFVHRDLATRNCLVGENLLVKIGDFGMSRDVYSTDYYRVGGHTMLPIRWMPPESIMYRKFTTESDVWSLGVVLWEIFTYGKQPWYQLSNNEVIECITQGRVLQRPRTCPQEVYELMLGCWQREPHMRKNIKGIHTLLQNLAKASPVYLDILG

Binder: FAKLAARLYRKALARQLGVAA [MMI-0300]
- % activity, 100 µM [1]: 101%
- % activity, 100 µM (CK1δ(h) (human), P48730): 92%
- % activity, 100 µM [2]: 1%
- % activity, 100 µM [3]: 10%
- % activity, 100 µM (PKCβI(h) (human), P05771): 78%
- % activity, 100 µM (PKG1α(h) (human), Q13976): 64%

Binder: YARAAARQARAKALARQLGVAA (modifications not checked) [MMI-0100]
- IC50 (kinase activity) (CaMKI(h) (human), Q14012): 11.7 µM
- IC50 (kinase activity) [3]: 45.8 µM
- IC50 (kinase activity) (DMPK(h) (human), Q09013): 34.1 µM
- IC50 (kinase activity) (DRAK1(h) (human), Q9UEE5): 78.3 µM
- IC50 (kinase activity) [4]: 128 µM
- IC50 (kinase activity) (EphA2(h) (human), P29317): 181 µM
- IC50 (kinase activity) (FGFR2(h) (human), P21802): 172 µM
- IC50 (kinase activity) (Fes(h) (human), P07332): 174 µM
- IC50 (kinase activity) (Fgr(h) (human), P09769): 141 µM
- IC50 (kinase activity) (LOK(h) (human), O94804): 47.6 µM
- IC50 (kinase activity) [5]: 12.1 µM
- IC50 (kinase activity) [6]: 15.8 µM
- IC50 (kinase activity) (MSK1(h) (human), O75582): 102 µM
- IC50 (kinase activity) (Pim-1(h) (human), P11309): 71.7 µM
- IC50 (kinase activity) (TrkB(h) (human), Q16620): 4.6 µM
- IC50 (kinase activity) (Yes(h) (human), P07947): 114 µM
- % inhibition [7]: < 30%
- % inhibition [8]: < 30%
- % inhibition [9]: < 30%
- % inhibition [10]: < 30%
- % inhibition [11]: < 30%
- % inhibition [12]: < 30%
- % inhibition [13]: < 30%
- % inhibition [14]: < 30%

Binder: KAFAKLAARLYRKALARQLGVAA [MMI-0400]
- % activity, 100 µM [1]: 105%
- % activity, 100 µM (CK1δ(h) (human), P48730): 93%
- % activity, 100 µM [2]: 2%
- % activity, 100 µM [3]: 17%
- % activity, 100 µM (PKCβI(h) (human), P05771): 78%
- % activity, 100 µM (PKG1α(h) (human), Q13976): 58%
